According to patent US20120315277A1, “Compositions and Methods for the Therapy and Diagnosis of Influenza” (priority 2011, published 2012):
Read-outs that look alike come from different tables or passages of the source.

How the values were obtained:
M2 peptide SEQ ID NO 273 = test: peptide ELISA, 5 µg/mL
[1] = target: truncated M2 peptide SEQ ID NO 271; test: peptide ELISA, 5 µg/mL
[2] = target: truncated M2 peptide SEQ ID NO 298; test: peptide ELISA, 5 µg/mL
[3] = target: truncated M2 peptide SEQ ID NO 299; test: peptide ELISA, 5 µg/mL
[4] = target: truncated M2 peptide SEQ ID NO 300; test: peptide ELISA, 5 µg/mL
[5] = target: truncated M2 peptide SEQ ID NO 301; test: peptide ELISA, 5 µg/mL
[6] = target: truncated M2 peptide SEQ ID NO 302; test: peptide ELISA, 5 µg/mL
[7] = target: truncated M2 peptide SEQ ID NO 303; test: peptide ELISA, 5 µg/mL
[8] = target: truncated M2 peptide SEQ ID NO 304; test: peptide ELISA, 5 µg/mL
[9] = target: truncated M2 peptide SEQ ID NO 305; test: peptide ELISA, 5 µg/mL
[10] = target: truncated M2 peptide SEQ ID NO 306; test: peptide ELISA, 5 µg/mL
[11] = target: truncated M2 peptide SEQ ID NO 307; test: peptide ELISA, 5 µg/mL
[12] = target: truncated M2 peptide SEQ ID NO 308; test: peptide ELISA, 5 µg/mL
[13] = target: truncated M2 peptide SEQ ID NO 309; test: peptide ELISA, 5 µg/mL
[14] = target: truncated M2 peptide SEQ ID NO 310; test: peptide ELISA, 5 µg/mL
[15] = target: truncated M2 peptide SEQ ID NO 311; test: peptide ELISA, 5 µg/mL
[16] = target: truncated M2 peptide SEQ ID NO 312; test: peptide ELISA, 5 µg/mL
[17] = target: truncated M2 peptide SEQ ID NO 313; test: peptide ELISA, 5 µg/mL
[18] = target: truncated M2 peptide SEQ ID NO 314; test: peptide ELISA, 5 µg/mL
[19] = target: truncated M2 peptide SEQ ID NO 315; test: peptide ELISA, 5 µg/mL
[20] = target: truncated M2 peptide SEQ ID NO 316; test: peptide ELISA, 5 µg/mL
[21] = target: 23 amino acid synthetic M2e peptide of A/Fort Worth/1/50 (H1N1) (influenza A virus A/Fort Worth/1/50 (H1N1)); test: ELISA on coated 23mer M2e peptide
[22] = target: truncated M2 peptide SEQ ID NO 298; test: peptide ELISA, 5 µg/mL; remark: listed apart in the source
[23] = target: truncated M2 peptide SEQ ID NO 299; test: peptide ELISA, 5 µg/mL; remark: listed apart in the source
[24] = target: truncated M2 peptide SEQ ID NO 309; test: peptide ELISA, 5 µg/mL; remark: listed apart in the source
A.Hong Kong.1144.99.H3N2 = target: T1, A.Hong Kong.1144.99.H3N2; test: FACS, transfected 293 cells
T1 M2: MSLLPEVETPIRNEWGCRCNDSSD

A.Hong Kong.1180.99 H3N2 = target: T2, A.Hong Kong.1180.99 H3N2; test: FACS, transfected 293 cells
T2 M2: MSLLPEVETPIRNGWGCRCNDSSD

A.Hong Kong.1.68.H3N2 [25] = target: T3, A.Hong Kong.1.68.H3N2; test: FACS, transfected 293 cells, 1 µg/mL
T3 M2: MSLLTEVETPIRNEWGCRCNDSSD

A.Caracas.1.71.H3N2 [26] = target: T4, A.Caracas.1.71.H3N2; test: FACS, transfected 293 cells, 1 µg/mL
T4 M2: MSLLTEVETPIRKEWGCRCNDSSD

A.Hong Kong.1.68.H3N2 [27] = target: T3, A.Hong Kong.1.68.H3N2; test: FACS, transfected HEK293, 1 µg/ml [D00006 FIG. 3C-1]
A.Caracas.1.71.H3N2 [28] = target: T4, A.Caracas.1.71.H3N2; test: as above

14C2 (chimeric mouse V-region/human IgG1 kappa 14C2 antibody)
ELISA A450 (M2 peptide SEQ ID NO 273): 3.85 | ELISA A450 [1]: 0.21 | ELISA A450 [2]: 3.94 | ELISA A450 [3]: 3.95 | ELISA A450 [4]: 0.15 | ELISA A450 [5]: 0.19 | ELISA A450 [6]: 0.23 | ELISA A450 [7]: 0.19 | ELISA A450 [8]: 0.23 | ELISA A450 [9]: 0.22 | ELISA A450 [10]: 0.27 | ELISA A450 [11]: 3.99 | ELISA A450 [12]: 3.9 | ELISA A450 [13]: 3.97 | ELISA A450 [14]: 3.97 | ELISA A450 [15]: 0.18 | ELISA A450 [16]: 0.2 | ELISA A450 [17]: 0.21 | ELISA A450 [18]: 0.17 | ELISA A450 [19]: 0.15 | ELISA A450 [20]: 0.14 | EC50 [21]: 0.01 µg/mL

B1: 23K12 (antibody, V domains shown)
VH: EVQLVESGGGLVQPGGSLRISCAASGFTVSSNYMSWVRQAPGKGLEWVSVIYSGGSTYYADSVKGRFSFSRDNSKNTVFLQMNSLRAEDTAVYYCARCLSRMRGYGLDVWGQGTTVTVS
VL: DIQMTQSPSSLSASVGDRVTITCRTSQSISSYLNWYQQKPGKAPKLLIYAASSLQSGVPSRFSGSGSGTDFTLTISGLQPEDFATYYCQQSYSMPAFGQGTKLEIK
ELISA A450 [22]: 0.21 | ELISA A450 [23]: 0.21 | ELISA A450 [24]: 0.3 | binding result (A.Hong Kong.1144.99.H3N2): no binding (tested: 1 µg/mL) | binding result (A.Hong Kong.1180.99 H3N2): no binding (tested: 1 µg/mL) | binding result (A.Hong Kong.1.68.H3N2 [25]): binds | binding result (A.Caracas.1.71.H3N2 [26]): binds

B2: 8I10 (antibody, V domains shown)
VH: QVQLQESGPGLVKPSETLSLTCTVSGSSISNYYWSWIRQSPGKGLEWIGFIYYGGNTKYNPSLKSRVTISQDTSKSQVSLTMSSVTAAESAVYFCARASCSGGYCILDYWGQGTLVTVS
VL: DIQMTQSPSSLSASVGDRVTITCRASQNIYKYLNWYQQRPGKAPKGLISAASGLQSGVPSRFSGSGSGTDFTLTITSLQPEDFATYYCQQSYSPPLTFGGGTRVEIK
binding result (A.Hong Kong.1144.99.H3N2): no binding (tested: 1 µg/mL) | binding result (A.Hong Kong.1180.99 H3N2): no binding (tested: 1 µg/mL) | binding result (A.Hong Kong.1.68.H3N2 [27]): binds | binding result (A.Caracas.1.71.H3N2 [28]): binds
